Experimental data: US20160137708A1 (Amgen, published 2016)
Substitutions are numbered along the chain they refer to. Where two headings read alike, the source gives them in different places. Blank lines part the entries; values can stand above or below the binder they belong to.

How the values were obtained:
Assay in all cases: cell-based or functional assay
[1] = biological target: T1, human IL-1Rrp2 (IL-1R-related protein 2) (human, UniProt Q9HB29 20-575)
T1 sequence (looked up): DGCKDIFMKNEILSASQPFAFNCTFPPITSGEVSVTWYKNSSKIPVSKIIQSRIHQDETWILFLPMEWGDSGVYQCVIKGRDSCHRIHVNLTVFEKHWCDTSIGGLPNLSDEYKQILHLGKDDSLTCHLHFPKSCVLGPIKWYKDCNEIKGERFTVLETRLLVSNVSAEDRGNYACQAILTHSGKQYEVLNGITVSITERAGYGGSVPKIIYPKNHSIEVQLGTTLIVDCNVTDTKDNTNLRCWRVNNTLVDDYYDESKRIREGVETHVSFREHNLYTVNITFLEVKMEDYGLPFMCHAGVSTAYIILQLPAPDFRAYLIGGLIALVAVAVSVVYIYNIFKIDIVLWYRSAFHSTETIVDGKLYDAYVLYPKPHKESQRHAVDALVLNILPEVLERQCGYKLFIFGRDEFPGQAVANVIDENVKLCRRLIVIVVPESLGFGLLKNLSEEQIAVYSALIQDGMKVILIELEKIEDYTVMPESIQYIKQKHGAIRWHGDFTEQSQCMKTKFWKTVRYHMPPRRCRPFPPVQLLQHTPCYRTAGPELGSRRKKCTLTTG

[2] = biological target: T1, human IL-1Rrp2 (IL-1R-related protein 2); remark: listed apart in the source
[3] = biological target: T1, human IL-1Rrp2 (IL-1R-related protein 2); remark: listed apart in the source

EC50, IL-8 ELISA of supernatants of Jurkat T-REx cells expressing human IL-1Rrp2 [1]: 12900 ng/mL | EC50, luciferase reporter assay in IL-1Rrp2 transfected Jurkat cells [1]: > 212 ng/mL
B1: HuIL-1F6 WT (untagged full length wild type human IL-1F6) (ligand)
chain: MEKALKIDTPQQGSIQDINHRVWVLQDQTLIAVPRKDRMSPVTIALISCRHVETLEKDRGNPIYLGLNGLNLCLMCAKVGDQPTLQLKEKDIMDLYNQPEPVKSFLFYHSQSGRNSTFESVAFPGWFIAVSSEGGCPLILTQELGKANTTDFGLTMLF

EC50, IL-8 ELISA of supernatants of Jurkat T-REx cells expressing human IL-1Rrp2 [2]: 0.129 ng/mL
B2: HuIL-1F8R5 (ligand)
chain: REAAPKSYAIRDSRQMVWVLSGNSLIAAPLSRSIKPVTLHLIACRDTEFSDKEKGNMVYLGIKGKDLCLFCAEIQGKPTLQLKEKNIMDLYVEKKAQKPFLFFHNKEGSTSVFQSVSYPGWFIATSTTSGQPIFLTKERGITNNTNFYLDSVE

EC50, luciferase reporter assay in IL-1Rrp2 transfected Jurkat cells [3]: 2.8 ng/mL | EC50, IL-8 ELISA of supernatants of Jurkat T-REx cells expressing human IL-1Rrp2 [2]: 60 ng/mL
B3: HuIL-1F6I7/FpH (ligand)
chain: MIDTPQRGSIQDINHRVWVLQDQTLIAVPRKDRMSPVTIALISCRHVETLEKDRGNPIYLGLNGLNLCLMCAKVGDQPTLQLKEKDIMDLYNQPEPVKSFLFYHSQSGRNSTFESVAFPGWFIAVSSEGGCPLILTQELGKANTTDFGLTMLFDYKDDDDKHHHHHH

EC50, luciferase reporter assay in IL-1Rrp2 transfected Jurkat cells [1]: > 136 ng/mL
B4: HuIL-1F6WT/FpH (ligand)
chain: MEKALKIDTPQQGSIQDINHRVWVLQDQTLIAVPRKDRMSPVTIALISCRHVETLEKDRGNPIYLGLNGLNLCLMCAKVGDQPTLQLKEKDIMDLYNQPEPVKSFLFYHSQSGRNSTFESVAFPGWFIAVSSEGGCPLILTQELGKANTTDFGLTMLFDYKDDDDKHHHHHH

EC50, luciferase reporter assay in IL-1Rrp2 transfected Jurkat cells [3]: 1 ng/mL | EC50, IL-8 ELISA of supernatants of Jurkat T-REx cells expressing human IL-1Rrp2 [2]: 17 ng/mL
B5: HuIL-1F9S18/FpH (ligand)
chain: SMCKPITGTINDLNQQVWTLQGQNLVAVPRSDSVTPVTVAVITCKYPEALEQGRGDPIYLGIQNPEMCLYCEKVGEQPTLQLKEQKIMDLYGQPEPVKPFLFYRAKTGRTSTLESVAFPDWFIASSKRDQPIILTSELGKSYNTAFELNINDDYKDDDDKHHHHHH

EC50, luciferase reporter assay in IL-1Rrp2 transfected Jurkat cells [3]: 1.1 ng/mL
B6: HuIL-1F9M19/FpH (ligand)
chain: B5 chain with S1M

EC50, luciferase reporter assay in IL-1Rrp2 transfected Jurkat cells [1]: > 332 ng/mL
B7: HuIL-1F9WT/FpH (ligand)
chain: MRGTPGDADGGGRAVYQSMCKPITGTINDLNQQVWTLQGQNLVAVPRSDSVTPVTVAVITCKYPEALEQGRGDPIYLGIQNPEMCLYCEKVGEQPTLQLKEQKIMDLYGQPEPVKPFLFYRAKTGRTSTLESVAFPDWFIASSKRDQPIILTSELGKSYNTAFELNINDDYKDDDDKHHHHHH

EC50, luciferase reporter assay in IL-1Rrp2 transfected Jurkat cells [1]: > 258 ng/mL
B8: HuIL-1F8WT/FpH (ligand)
chain: MNPQREAAPKSYAIRDSRQMVWVLSGNSLIAAPLSRSIKPVTLHLIACRDTEFSDKEKGNMVYLGIKGKDLCLFCAEIQGKPTLQLKEKNIMDLYVEKKAQKPFLFFHNKEGSTSVFQSVSYPGWFIATSTTSGQPIFLTKERGITNNTNFYLDSVEDYKDDDDKHHHHHH

EC50, IL-8 ELISA of supernatants of Jurkat T-REx cells expressing human IL-1Rrp2 [1]: 10500 ng/mL | EC50, luciferase reporter assay in IL-1Rrp2 transfected Jurkat cells [1]: > 193 ng/mL
B9: HuIL-1F8WT (untagged full length wild type human IL-1F8) (ligand)
chain: MNPQREAAPKSYAIRDSRQMVWVLSGNSLIAAPLSRSIKPVTLHLIACRDTEFSDKEKGNMVYLGIKGKDLCLFCAEIQGKPTLQLKEKNIMDLYVEKKAQKPFLFFHNKEGSTSVFQSVSYPGWFIATSTTSGQPIFLTKERGITNNTNFYLDSVE

EC50, IL-8 ELISA of supernatants of Jurkat T-REx cells expressing human IL-1Rrp2 [1]: 4070 ng/mL | EC50, luciferase reporter assay in IL-1Rrp2 transfected Jurkat cells [1]: > 544 ng/mL
B10: HuIL-1F9WT (untagged full length wild type human IL-1F9) (ligand)
chain: MRGTPGDADGGGRAVYQSMCKPITGTINDLNQQVWTLQGQNLVAVPRSDSVTPVTVAVITCKYPEALEQGRGDPIYLGIQNPEMCLYCEKVGEQPTLQLKEQKIMDLYGQPEPVKPFLFYRAKTGRTSTLESVAFPDWFIASSKRDQPIILTSELGKSYNTAFELNIND

EC50, IL-8 ELISA of supernatants of Jurkat T-REx cells expressing human IL-1Rrp2 [2]: 0.164 ng/mL
B11: HuIL-1F6K6 (ligand)
chain: KIDTPQQGSIQDINHRVWVLQDQTLIAVPRKDRMSPVTIALISCRHVETLEKDRGNPIYLGLNGLNLCLMCAKVGDQPTLQLKEKDIMDLYNQPEPVKSFLFYHSQSGRNSTFESVAFPGWFIAVSSEGGCPLILTQELGKANTTDFGLTMLF

EC50, luciferase reporter assay in IL-1Rrp2 transfected Jurkat cells [3]: 0.2 ng/mL | EC50, IL-8 ELISA of supernatants of Jurkat T-REx cells expressing human IL-1Rrp2 [2]: 2 ng/mL
B12: HuIL-1F8E6/FpH (ligand)
chain: MEAAPKSYAIRDSRQMVWVLSGNSLIAAPLSRSIKPVTLHLIACRDTEFSDKEKGNMVYLGIKGKDLCLFCAEIQGKPTLQLKEKNIMDLYVEKKAQKPFLFFHNKEGSTSVFQSVSYPGWFIATSTTSGQPIFLTKERGITNNTNFYLDSVEDYKDDDDKHHHHHH

EC50, IL-8 ELISA of supernatants of Jurkat T-REx cells expressing human IL-1Rrp2 [2]: 1 ng/mL
B13: HuIL-1F9S18 (ligand)
chain: SMCKPITGTINDLNQQVWTLQGQNLVAVPRSDSVTPVTVAVITCKYPEALEQGRGDPIYLGIQNPEMCLYCEKVGEQPTLQLKEQKIMDLYGQPEPVKPFLFYRAKTGRTSTLESVAFPDWFIASSKRDQPIILTSELGKSYNTAFELNIND
